Measured values from the Immune Epitope Database (IEDB).

Tests used:
Experiment in all cases: IEDB peptide-MHC binding, purified MHC/competitive/radioactivity; filed as Kd, often an IC50 or EC50 that approximates it; ≥ and ≤ were set here for values at or beyond the usual limits of such assays
[1] = molecular target: HLA-A*02:02
[2] = molecular target: HLA-A*02:03
[3] = molecular target: HLA-A*02:06
[4] = molecular target: HLA-A*03:01
[5] = molecular target: HLA-A*11:01
[6] = molecular target: HLA-A*31:01
[7] = molecular target: HLA-A*33:01
[8] = molecular target: HLA-A*68:01
[9] = source organism: Vaccinia virus WR
[10] = source organism: Lassa virus Josiah
[11] = source organism: SARS coronavirus Tor2
[12] = source organism: Dengue virus 4 Philippines/H241/1956
[13] = source organism: Mammarenavirus brazilense
[14] = source organism: Mammarenavirus tacaribeense
[15] = source organism: Dengue virus 3 Martinique/1243/1999

Sequence | Kd [1, 9] [nM] | Kd [2, 9] [nM] | Kd [3, 9] [nM] | also measured
DIYDAVRAFL | 1460 | 6950 | 12100 | 
RVLIFILLTA |  |  |  | Kd ([3]; source organism: Dengue virus 2 Peru/IQT2913/1996): 397 nM
CNYSKYWYL |  |  |  | Kd [1, 10]: 3660 nM; Kd [2, 10]: 7130 nM; Kd [3, 10]: 2700 nM
RVKQWVMDTL | 3480 | 689 | ≥ 27800 | 
YIWIKNLET | 12600 | 1180 | 347 | 
EILRNYLRL | 14000 | 2090 | 13000 | 
SLCSCICTV |  |  |  | Kd [1, 11]: 3.96 nM; Kd [2, 11]: 4.19 nM; Kd [3, 11]: 5.83 nM
AVFKMSPGYV |  |  |  | Kd [2, 12]: 7.15 nM
VAVNKSNKPL | 2750 | 5130 | 17600 | 
YNYSLSAAV |  |  |  | Kd [1, 13]: 78.9 nM; Kd [2, 13]: 67.2 nM; Kd [3, 13]: 88.4 nM
QTVDFTDCRT | ≥ 30500 | ≥ 54300 | 3640 | 
DTSNNIAEYI | 3330 | 9220 | ≥ 45700 | 
CAVIPFDDIV | 2920 | 7420 | 184 | 
TTNNLLEQLI | 8880 | ≥ 21000 | 13100 | 
NIISYIILFI | 123 | 133 | 72 | 
YTGGYDVSL | 1990 | 6050 | ≥ 20300 | 
NLTQLFKYV | 320 | 238 | 657 | 
IMKDGRVLV |  |  |  | Kd ([2]; source organism: Dengue virus 2 16681-PDK53): 19 nM
LVDKEDTDIV | 3700 | 1680 | ≥ 27100 | 
LMIFISSFL | 0.651 | 0.13 | 17.8 | 
KTDGAVTSPL | 61.9 | 400 | 347 | 
KSFFWFNEV |  |  |  | Kd [1, 14]: 61.9 nM; Kd [2, 14]: 264 nM; Kd [3, 14]: 3.18 nM
SAFNDDGIYI | 35.2 | 67.7 | 40.9 | 

Sequence | Kd [1, 9] [nM] | Kd [2, 9] [nM] | Kd [3, 9] [nM] | also measured
YIENTNQGNI | 1220 | 582 | 6200 | 
NITTLLNET | 1300 | 2900 | 2310 | 
GLCNYGGILI | 152 | 3210 | 5030 | 
VVECLTVPNI | 8420 | 19600 | 301 | 
SVQLSNNKYV | 1220 | 820 | 8830 | 
LLFNKVTLA |  |  |  | Kd [1, 11]: 0.953 nM; Kd [2, 11]: 1.06 nM; Kd [3, 11]: 9.01 nM
KLSMGLIAIA |  |  |  | Kd [2, 12]: 22.9 nM
GIITLYLGAV |  |  |  | Kd [2, 15]: 4.98 nM; Kd [3, 15]: 5.01 nM
CLTVPNITI | 95.9 | 75.2 | 1660 | 
AQPGLLSYV |  |  |  | Kd ([2]; source organism: Mammarenavirus guanaritoense): 5.53 nM
VQLSNNKYV | 7340 | 541 | 214 | 
LTTVFIKYV | 3650 | 676 | 130 | 
SVDVDIYDAV | 0.427 | 9.18 | 3.3 | 
YVASYLLAA |  |  |  | Kd ([2]; source organism: Homo sapiens): 0.978 nM
TIDNIVTSLA | ≥ 70000 | ≥ 70400 | ≥ 69800 | 
LIYDDNIDSI | 121 | 26.1 | 212 | 
YLGHSAGFT | 874 | 225 | 4550 | 
PLTLLIKTL | 5270 | 6140 | 8100 | 
VVFLHVTYV |  |  |  | Kd [1, 11]: 7.75 nM; Kd [2, 11]: 0.281 nM; Kd [3, 11]: 3.86 nM
MSLYMAISPK |  |  |  | Kd [4, 11]: 0.256 nM; Kd [5, 11]: 0.199 nM; Kd [6, 11]: 69.4 nM; Kd [7, 11]: 1870 nM; Kd [8, 11]: 10.7 nM
LIVSLCPTKK |  |  |  | Kd [4, 9]: 226 nM; Kd [5, 9]: 56.9 nM; Kd [6, 9]: 11600 nM; Kd [7, 9]: ≥ 70000 nM; Kd [8, 9]: 350 nM
ATKRYPGVMY |  |  |  | Kd [4, 9]: 32.8 nM; Kd [5, 9]: 164 nM; Kd [6, 9]: 18100 nM; Kd [7, 9]: ≥ 70000 nM; Kd [8, 9]: ≥ 70200 nM
NLDLFMSHVK |  |  |  | Kd [4, 9]: 19.4 nM; Kd [5, 9]: 68.8 nM; Kd [6, 9]: 7760 nM; Kd [7, 9]: 2880 nM; Kd [8, 9]: 852 nM
